Measurements: the supplement of paper PMC9233669
Fewer inactive variants are shown than the library holds.

Tests used:
biotinyl-Val-oxazolone = assay: self-aminoacylation, catalytic enhancement (BVO) (fold over background); higher = more active; k-Seq, kA / k0A0; sequences stand for … in GGGAAUGGAUCCACAUCUACGAAUUC…UUCACUGCAGACUUGACGAAGCUG
How it was run: (§1)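 Mutagenized RNA pools with a 21-nt variable region (0.43 μM) reacted with each biotinyl-aminoacyl-oxazolone at 2–1250 μM. Reactions ran in 50 μL HEPES/NaCl/KCl/MgCl2/CaCl2 buffer with 5% acetonitrile, pH 6.9–7.0, for 90 minutes at room temperature. Streptavidin-captured RNA was quantified by triplicate qPCR and Illumina sequencing, and per-sequence fraction reacted was fit to a pseudo-first-order model with 1000 bootstraps. Catalytic enhancement is median kA divided by the uncatalyzed rate, the low-activity peak of a bimodal Gaussian fit.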

biotinyl-Leu-oxazolone = assay: self-aminoacylation, catalytic enhancement (BLO) (fold over background); higher = more active; k-Seq, kA / k0A0; sequences stand for … in GGGAAUGGAUCCACAUCUACGAAUUC…UUCACUGCAGACUUGACGAAGCUG
How it was run: as §1

biotinyl-Met-oxazolone = assay: self-aminoacylation, catalytic enhancement (BMO) (fold over background); higher = more active; k-Seq, kA / k0A0; sequences stand for … in GGGAAUGGAUCCACAUCUACGAAUUC…UUCACUGCAGACUUGACGAAGCUG
How it was run: as §1

biotinyl-Ile-oxazolone = assay: self-aminoacylation, catalytic enhancement (BIO) (fold over background); higher = more active; k-Seq, kA / k0A0; sequences stand for … in GGGAAUGGAUCCACAUCUACGAAUUC…UUCACUGCAGACUUGACGAAGCUG
How it was run: as §1

biotinyl-Phe-oxazolone = assay: self-aminoacylation, catalytic enhancement (BFO) (fold over background); higher = more active; k-Seq, kA / k0A0; sequences stand for … in GGGAAUGGAUCCACAUCUACGAAUUC…UUCACUGCAGACUUGACGAAGCUG
How it was run: as §1

biotinyl-Trp-oxazolone = assay: self-aminoacylation, catalytic enhancement (BWO) (fold over background); higher = more active; k-Seq, kA / k0A0; sequences stand for … in GGGAAUGGAUCCACAUCUACGAAUUC…UUCACUGCAGACUUGACGAAGCUG
How it was run: as §1

Sequence | self-aminoacylation (biotinyl-Val-oxazolone) | self-aminoacylation (biotinyl-Leu-oxazolone) | self-aminoacylation (biotinyl-Met-oxazolone) | self-aminoacylation (biotinyl-Ile-oxazolone) | self-aminoacylation (biotinyl-Phe-oxazolone) | self-aminoacylation (biotinyl-Trp-oxazolone)
AUUACUCCGGUCAUCGAGUGA [Fam2.1 aminoacylation ribozyme variant] | 2.64 | 5.43 | 5.22 | 2.81 | 16 | 5.76
AUUACUCUGGUCAGCGAGUGA [Fam2.1 aminoacylation ribozyme variant] | 3.13 | 5.83 | 5.21 | 3.29 | 17.6 | 5.85
AUUACUCUGGUCAUCCAGUGA [Fam2.1 aminoacylation ribozyme variant] | 2.74 | 5.29 | 5.01 | 3.2 | 17.3 | 6.01
AUUACUCUGGUCAUUGAGUGA [Fam2.1 aminoacylation ribozyme variant] | 3.61 | 8.45 | 7.88 | 4.15 | 32.7 | 9.3
AUUACUGUGGUCAUCGAGUGA [Fam2.1 aminoacylation ribozyme variant] | 2.56 | 4.25 | 4.65 | 2.65 | 14.1 | 5.16
AUUAGACUGGUCAUCGAGUGA [Fam2.1 aminoacylation ribozyme variant] | 2.56 | 3.73 | 4.4 | 3 | 7.88 | 4.81
AUUAGCCUGAUCAUCGAGUGA [Fam2.1 aminoacylation ribozyme variant] | 4.4 | 10.6 | 10.4 | 4.82 | 46.7 | 11
AUUAGCCUGGUCAUCGAGUGA [Fam2.1 aminoacylation ribozyme variant] | 4.55 | 7.65 | 7.22 | 4.61 | 21.7 | 9.2
AUUAGCCUGGUCAUCGAGUGU [Fam2.1 aminoacylation ribozyme variant] | 3.14 | 4.18 | 4.71 | 2.76 | 3.87 | 5.12
AUUAGCCUUGUCAUCGAGUGA [Fam2.1 aminoacylation ribozyme variant] | 2.76 | 3.97 | 3.73 | 2.85 | 6.72 | 4.07
AUUAUCCGGGUCAUCGAGUGA [Fam2.1 aminoacylation ribozyme variant] | 4.04 | 8.08 | 8.26 | 4.14 | 45.7 | 8.13
AUUAUCCUGGUCAACGAGUGA [Fam2.1 aminoacylation ribozyme variant] | 3.87 | 8.02 | 6.62 | 3.69 | 30.1 | 7.67
AUUAUCCUGGUCAGCGAGUGA [Fam2.1 aminoacylation ribozyme variant] | 3.13 | 5.28 | 5.26 | 3.04 | 17.7 | 6.53
AUUAUCCUGGUCAUCGAGUAA [Fam2.1 aminoacylation ribozyme variant] | 1.39 | 1.85 | 2.03 | 1.43 | 2.69 | 1.08
AUUAUCCUGGUCAUCGCGUGA [Fam2.1 aminoacylation ribozyme variant] | 8.29 | 19.9 | 17.9 | 6.96 | 146 | 19.3
AUUAUCCUGGUCAUGGAGUGA [Fam2.1 aminoacylation ribozyme variant] | 2.6 | 4.6 | 4.22 | 2.67 | 13.6 | 5.21
AUUCAACCAGGUCAUCGGGUG [Fam2.2 aminoacylation ribozyme variant] | 4.22 | 7.64 | 5.83 | 4.64 | 58.9 | 6.24
AUUCAACGAGGUCAUCGGGUG [Fam2.2 aminoacylation ribozyme variant] | 5.11 | 9.27 | 7.46 | 3.97 | 54.8 | 6.07
AUUCAACUAAGUCAUCGGGUG [Fam2.2 aminoacylation ribozyme variant] | 4.13 | 10.7 | 7.12 | 4.92 | 69.4 | 7.24
AUUCAACUAGGUCAUAGGGUG [Fam2.2 aminoacylation ribozyme variant] | 1.28 | 2.58 | 2 | 1.49 | 9.13 | 1.47
AUUCAACUAGGUCUUCGGGUG [Fam2.2 aminoacylation ribozyme variant] | 3.01 | 4.84 | 4.21 | 2.93 | 29.8 | 4.34
AUUCAACUAGGUUAUCGGGUG [Fam2.2 aminoacylation ribozyme variant] | 2.45 | 3.61 | 3.29 | 2.21 | 22.1 | 3.46
AUUCAACUAGUUCAUCGGGUG [Fam2.2 aminoacylation ribozyme variant] | 1.95 | 2.77 | 2.82 | 1.95 | 16.8 | 2.29
AUUCACAUAGAUCAUCGGGUG [Fam2.2 aminoacylation ribozyme variant] | 2.8 | 5.04 | 4.43 | 2.93 | 35.2 | 3.84
AUUCACAUAGCUCAUCGGGUG [Fam2.2 aminoacylation ribozyme variant] | 2.38 | 2.36 | 1.91 | 2 | 12.6 | 2.34
AUUCACAUAGGUCAUCAGGUG [Fam2.2 aminoacylation ribozyme variant] | 1.4 | 1.63 | 1.41 | 1.2 | 1.62 | 1.85

Sequence | self-aminoacylation (biotinyl-Val-oxazolone) | self-aminoacylation (biotinyl-Leu-oxazolone) | self-aminoacylation (biotinyl-Met-oxazolone) | self-aminoacylation (biotinyl-Ile-oxazolone) | self-aminoacylation (biotinyl-Phe-oxazolone) | self-aminoacylation (biotinyl-Trp-oxazolone)
AUUCACAUAGGUCAUCGGGUA [Fam2.2 aminoacylation ribozyme variant] | 2.57 | 2.54 | 2.86 | 2.24 | 22.7 | 3.56
AUUCACAUAGGUCAUCGGGUG [Fam2.2 aminoacylation ribozyme variant] | 5.09 | 10.6 | 8.47 | 5.09 | 65.2 | 7.83
AUUCACAUAGGUCAUGGGGUG [Fam2.2 aminoacylation ribozyme variant] | 4.12 | 9.35 | 7.28 | 4.56 | 46.7 | 6.97
AUUCACAUAUGUCAUCGGGUG [Fam2.2 aminoacylation ribozyme variant] | 4.21 | 9.08 | 7.09 | 4.44 | 52.5 | 7.3
AUUCACCAAGGCCAUCGGGUG [Fam2.2 aminoacylation ribozyme variant] | 3.49 | 5.34 | 5.09 | 3.32 | 30.1 | 4.57
AUUCACCAAGGUCAACGGGUG [Fam2.2 aminoacylation ribozyme variant] | 3.1 | 8.07 | 6.3 | 3.52 | 42.5 | 6.16
AUUCACCAAGGUCAUCGGGUU [Fam2.2 aminoacylation ribozyme variant] | 2.59 | 2.21 | 2.43 | 2.42 | 17.2 | 4.16
AUUCACCAAGGUCAUCGGUUG [Fam2.2 aminoacylation ribozyme variant] | 1.39 | 1.72 | 1.55 | 1.42 | 9.05 | 1.69
AUUCACCAAGGUCAUUGGGUG [Fam2.2 aminoacylation ribozyme variant] | 4.54 | 9.21 | 6.78 | 4.07 | 49.8 | 6.53
AUUCACCAAGGUUAUCGGGUG [Fam2.2 aminoacylation ribozyme variant] | 4.4 | 8.94 | 7.8 | 4.45 | 63.7 | 6.57
AUUCACCAAUGUCAUCGGGUG [Fam2.2 aminoacylation ribozyme variant] | 5.57 | 12.6 | 9.72 | 5.59 | 75.3 | 8.56
AUUCACCACGGUCAUCGGGUG [Fam2.2 aminoacylation ribozyme variant] | 6.13 | 12.3 | 9.37 | 5.71 | 68.7 | 10
AUUCACCCAGGGCAUCGGGUG [Fam2.2 aminoacylation ribozyme variant] | 3.72 | 6.26 | 3.74 | 3.62 | 20 | 3.92
AUUCACCCAGGUAAUCGGGUG [Fam2.2 aminoacylation ribozyme variant] | 2.14 | 3.88 | 3.1 | 2.26 | 18.6 | 2.46
AUUCACCCAGGUCAUCGGAUG [Fam2.2 aminoacylation ribozyme variant] | 0.988 | 0.895 | 0.669 | 0.889 | 0.458 | 1.07
AUUCACCCAGGUCAUCGGCUG [Fam2.2 aminoacylation ribozyme variant] | 2 | 1.85 | 1.62 | 1.99 | 6.8 | 1.41
AUUCACCCAGGUCAUCUGGUG [Fam2.2 aminoacylation ribozyme variant] | 2.25 | 4.84 | 3.99 | 2.35 | 28.2 | 3
AUUCACCCAGGUCUUCGGGUG [Fam2.2 aminoacylation ribozyme variant] | 3.84 | 5.78 | 5.3 | 3.28 | 35 | 5.13
AUUCACCCCGGUCAUCGGGUG [Fam2.2 aminoacylation ribozyme variant] | 3.99 | 8.33 | 7.52 | 4.14 | 64.7 | 5.88
AUUCACCGAGGCCAUCGGGUG [Fam2.2 aminoacylation ribozyme variant] | 4.36 | 6.39 | 5.31 | 3.16 | 32.8 | 4.78
AUUCACCGAGGUAAUCGGGUG [Fam2.2 aminoacylation ribozyme variant] | 5.13 | 11.5 | 8.27 | 4.23 | 60.4 | 8.26
AUUCACCGAGGUCAUCGGAUG [Fam2.2 aminoacylation ribozyme variant] | 1.17 | 1.41 | 1.07 | 1.18 | 0.641 | 1.42
AUUCACCGAGGUCGUCGGGUG [Fam2.2 aminoacylation ribozyme variant] | 2.55 | 3.03 | 3.16 | 2.55 | 11.1 | 3
AUUCACCGAGGUGAUCGGGUG [Fam2.2 aminoacylation ribozyme variant] | 4.15 | 6.59 | 4.75 | 3.8 | 29.6 | 3.05
AUUCACCGAGGUUAUCGGGUG [Fam2.2 aminoacylation ribozyme variant] | 5.85 | 10 | 7.16 | 4.28 | 87.3 | 7.66
